In US20260109755A1 (published 2026):
Substitutions are numbered along the chain they refer to. Numbers in names are those of the source.

B1: 3E11 antibody (antibody, V domains shown)
VH: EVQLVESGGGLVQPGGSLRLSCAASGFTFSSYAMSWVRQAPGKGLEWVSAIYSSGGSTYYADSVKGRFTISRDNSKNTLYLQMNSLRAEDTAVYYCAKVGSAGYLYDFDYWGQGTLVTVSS
VL: DIQMTQSPSSLSASVGDRVTITCRASQDIANYLNWYQQKPGKAPKLLIYATSTLQSGVPSRFSGSGSGTDFTLTISSLQPEDFATYYCQQSYSSPWTFGQGTKVEIKR
B2: 4H7 antibody (antibody, V domains shown)
VH: EVQLVESGGGLVQPGGSLRLSCAASGFTFSTYGMSWVRQAPGKGLEWVSAISSSGGSIYYADSVKGRFTISRDNSKNTLYLQMNSLRAEDTAVYYCAKVSYPGLAFDIWGQGTLVTVSS
VL: B1 VL with D28T, A30S, T53S
B3: 4F10 antibody (antibody, V domains shown)
VH: EVQLVESGGGLVQPGGSLRLSCAASGFTFSDYAMSWVRQAPGKGLEWVSAIYSTGSSTYYADSVKGRFTISRDNSKNTLYLQMNSLRAEDTAVYYCAKVGWYLFDYWGQGTLVTVSS
VL: B1 VL with D28S, A30S, N31R, T53R
B4: 4F9 antibody (antibody, V domains shown)
VH: B2 VH with T31D, G33A, S52K, G56S, I58T, V99A, S100E, P102E, G103Y
VL: B1 VL with A30S, N31S, Y32W
B5: 5D5 antibody (antibody, V domains shown)
VH: EVQLVESGGGLVQPGGSLRLSCAASGFTFSDYAMSWVRQAPGKGLEWVSSISSTGSTTYYADSVKGRFTISRDNSKNTLYLQMNSLRAEDTAVYYCAKVLYEYLYFDYWGQGTLVTVSS
VL: B1 VL with A30R, Y32W, T51A, T53S
B6: 4G4 antibody (antibody, V domains shown)
VH: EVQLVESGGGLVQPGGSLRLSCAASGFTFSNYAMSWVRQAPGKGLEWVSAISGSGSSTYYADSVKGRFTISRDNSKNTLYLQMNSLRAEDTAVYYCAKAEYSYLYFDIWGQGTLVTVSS
VL: B1 VL with D28S, A30S, Y32W, T51A, T53R
B7: S4A antibody (antibody, V domains shown)
VH: EVQLLESGGGLVQPGGSLRLSCAASGFTFSSYSMNWVRQAPGKGLEWVSWISPNSGSTDYAQKFQGRFTISRDNSKNTLYLQMNSLRAEDTAVYYCARTPPGTPFDYWGQGTLVTVSS
VL: QSVLTQPPSASGTPGQRVTISCSGNNIGSKSVHWYQQLPGTAPRLLIYSTSNKHSGVPDRFSGSKSGTSASLAISGLHSEDEADYYCSSYTSSGTRVFGGGTKLTVLG

Molecular target: T1, SH3 domain-containing YSC84-like 1 (SH3YL1), antigen of the antibodies (UniProt Q96HL8 1-342)
T1 chain: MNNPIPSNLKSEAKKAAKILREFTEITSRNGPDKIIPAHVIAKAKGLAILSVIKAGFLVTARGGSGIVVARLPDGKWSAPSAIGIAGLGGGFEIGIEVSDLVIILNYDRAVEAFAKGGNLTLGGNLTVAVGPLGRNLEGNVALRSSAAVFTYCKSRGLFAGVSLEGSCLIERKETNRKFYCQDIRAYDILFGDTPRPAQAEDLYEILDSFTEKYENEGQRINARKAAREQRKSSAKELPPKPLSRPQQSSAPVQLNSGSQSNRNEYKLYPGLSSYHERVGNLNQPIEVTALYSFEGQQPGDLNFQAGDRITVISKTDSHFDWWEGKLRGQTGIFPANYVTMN

Row | Binder | Kd
1 | B1 | 3.56 nM
2 | B2 | 3.43 nM
3 | B3 | 0.404 nM
4 | B4 | 3.63 nM
5 | B5 | 5.49 nM
6 | B6 | 2.96 nM
7 | B7 | 2.06 nM
